# Results as given in US20110117206A1, “PHOSPHOPEPTIDES AND USE OF THE SAME” (PLANT BIOSCIENCE LIMITED, priority 2008, published 2011).
# Assays:
# [1] = SAXS and structural model of calcium phosphate nanoclusters; type: physicochemical; conditions: from modelling of the structure
# Method: For the OPN 1-149 nanocluster, a description of the peptide segment distribution around the core was considered which is more explicit than that provided by the core-shell model. The simplest block copolymer micelle model has been used in which a corona is formed by Gaussian chains attached by one end to a uniform spherical core. The nanoclusters were prepared either on the SAXS station and measured immediately or were prepared 2 days previously to allow the system to come to equilibrium. The sample was then stored at room temperature and remeasured 5 months later during a later allocation of beamtime. […] The intensity averaged diffusion coefficient, D, was determined with a Malvern Zetasizer Nano instrument.
# The results of the SAXS measurements on nanocluster sub-samples measured as a function of time after the addition of the urease are summarised in FIGS. 6a and 6b. […] According to the calculated degree of reaction of the phosphate centres and to the analysis of the correlation function given by the dynamic light scattering studies, the equilibrium state has a significant excess of free peptide, the scattering from which, although negligible at low q, has to be taken account of in modelling the SAXS at higher q. […]
# [2] = SAXS of free OPN and OPN 1-149 (Guinier, worm-like chain model); type: physicochemical; conditions: free peptide, 5-15 mg ml^−1, average of three determinations
# Method: In a SAXS experiment, wherein measurements were made on station 2.1 at the CCLRC Daresbury Laboratory, the normalised scattered intensity I(q) was measured. For a dispersion of isotropic, monodisperse particles, I(q) is related to the inter-particle structure factor, S(q) and the particle scattering factor P(q) by
# where N is the number of particles of mean excess scattering length density over the solvent Δ ρp, volume Vp and mass M. The scattering wave vector is q=4π sin θ/λo, where θ is half the scattering angle and λo is the wavelength of the X-rays. In a dilute solution where S(q)=1 and a fraction α′ of the peptide chains have formed a polydisperse distribution of nanoclusters, equation (22) becomes
# The molar volumes of the unphosphorylated residues were taken from Jacrot and Zaccai (Jacrot, B. & Zaccai, G. (1981). Determination of Molecular-Weight by Neutron-Scattering. Biopolymers 20, 2413-2426). The molar volume of ortho-L-phosphoserine was calculated from the unit cell volume of the amino acid, as determined by Sundaralingam (Sundaralingam, M. & Putkey, E. F. (1970). Molecular structures of amino acids and peptides. II. A redetermination of the crystal structure of L-O-serine phosphate. A very short phosphate-carboxyl hydrogen bond. Acta Crystallographica B26, 790-800) and 11 Å^3 subtracted to give the residue volume of 168.7 Å^3. The difference in residue volumes of serine and phosphoserine was then used to calculate a residue volume for phosphothreonine of 191.7 Å^3. The X-ray forward scattering amplitudes of the residues were calculated from the elemental compositions using atomic scattering factors. For OPN 16P 1-149 and OPN 28P 1-262, the scattering length densities in units of […] were calculated to be 12.56 and 12.48, respectively. For the nanoclusters prepared with OPN 16P 1-149 it was assumed that the phosphate moieties of the 10 phosphorylated residues found in the three PCs, were assigned to the core, giving ρshell=12.40×10^10 cm^−2. For the core, a hydrated CaP with the composition given by equation (2) gave ρcore=19.1×10^10 cm^−2. Radii of gyration of the whole protein and N-terminal polypeptide were independent of concentration in the range 5-15 mg ml^−1. For OPN the average of three determinations by the Guinier method was 5.50±0.17 nm and the corresponding value for OPN 1-149 was 2.17±0.24 nm. For OPN with 262 residues, equation (28) predicts a radius of gyration of 5.38 nm and for the N-terminal plasmin peptide of 149 residues, the predicted value is 3.84 nm.
# Random-coil behavior and the dimensions of chemically unfolded proteins. Proceedings of the National Academy of Sciences of the United States of America 101, 12491-12496). […]
substance,measurement,setting,value
"OPN 1-149: N-terminal osteopontin phosphopeptide fragment from bovine milk, probably formed by plasmin; gel filtration fraction F3a",number of peptide chains on a nanocluster,[1],about 2618
same,radius of gyration by the Guinier method,[2],2.17±0.24 nm
